T1: monkey LAG-3 on cells (HEK293-cLAG-3 stable cell line) (monkey, UniProt P18627 24-525 (human entry))
T1 construct: Full-length monkey (Chinese monkey) LAG-3 gene expressed on HEK293 cells
T1 chain: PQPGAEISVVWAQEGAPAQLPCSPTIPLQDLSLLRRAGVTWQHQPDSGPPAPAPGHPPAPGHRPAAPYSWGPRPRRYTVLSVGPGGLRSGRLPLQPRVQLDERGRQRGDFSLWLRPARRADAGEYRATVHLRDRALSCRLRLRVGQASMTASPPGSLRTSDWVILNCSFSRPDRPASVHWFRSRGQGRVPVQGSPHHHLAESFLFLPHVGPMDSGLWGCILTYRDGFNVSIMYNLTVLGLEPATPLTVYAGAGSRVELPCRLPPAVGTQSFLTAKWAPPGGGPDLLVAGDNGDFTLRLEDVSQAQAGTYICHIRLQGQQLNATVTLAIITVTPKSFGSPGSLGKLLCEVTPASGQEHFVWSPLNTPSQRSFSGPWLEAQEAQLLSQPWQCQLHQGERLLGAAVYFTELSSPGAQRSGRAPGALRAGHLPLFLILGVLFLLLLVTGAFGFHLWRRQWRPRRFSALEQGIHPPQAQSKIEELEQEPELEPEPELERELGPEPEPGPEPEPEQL

B1: 405B8H3 mouse-human chimeric antibody (antibody, V domains shown)
VH: QVQLQQSGAELVRPGASVTLSCKASGYTFTDYEMHWVKQTPVHGLEWIGATDPETGNSAYNQKFKGKAIMTADKSSSTAYMELRSLTSEDSAVYYCISTGWNDWGQGTSLTVSS
VL: DIKMTQSPSSMYASLGERVTITCKASQDINSYLSWFQQKPGKSPKTLIYRADRLLDGVPSRFSGSGSGQDYSLTISSLEYGDMGIYYCLQYDEFPYTFGGGTKLEIK
notes: also called mAb103-405B8H3
B2: 409D4E10 mouse-human chimeric antibody (antibody, V domains shown)
VH: QVQLQQSGAELVRPGASVTLSCKASGNTFTDYEMHWVKQTPVHGLEWIGATDPETDNTAYNQKFKGKAILTTDKSSSTAYMELRSLTSEDSAVYYCITSGWNDWGQGTSLTVSS
VL: DIKMTQSPSSMYASLGERVTITCKASQDINSYLSWFQQKPGKSPKTLIYRANRLLDGVPSRFSGSGSGQDYSLTISSLEYEDMGIYYCLQYNEFPYTFGGGTKLEIK
notes: also called mAb112-409D4E10
B3: 409B11E12 mouse-human chimeric antibody (antibody, V domains shown)
VH: QVQLQQSGAELVRPGASVTLSCKASGYTFTDYEMHWVKQTTVHGLEWIGATDPETSYSAYNQKFKGKAILTADKSSSTAYMELRSLTSEDSAVYYCIATGWNDWGQGTSLTVSS
VL: DLKMTQSPSSMYASLGERVTITCKASQDINSYLSWFQQKPGKSPKTLIYRANRLLDGVPSRFSGSGSGQDYSLTISSLEYEDMGIYYCLQYDEFPYTFGGGTKLEIK
notes: also called mAb104-409B11E12

Molecular target: T1, monkey LAG-3 on cells (HEK293-cLAG-3 …)
Assay: FACS, HEK293-cLAG-3, antibody 8.000 nM
Excerpt: The pIRES plasmid with the monkey-derived full-length gene was transfected into the HEK293 cell line to construct a HEK293 stable cell line containing monkey LAG-3 (herein referred to as HEK293-cLAG-3 stable cell line). The HEK293-hLAG-3 stable cell line and HEK293-cLAG-3 stable cell line were expanded in a T-75 cell culture flask to a 90% confluence. The medium was aspirated, and the cells were washed with HBSS (Hanks' Balanced Salt Solution) 1-2 times, then treated with a enzyme-free cell dissociation fluid (Versene solution: Life technology) and the cells were collected. The cells were washed with HBSS buffer for 1-2 times. After counted, the cells were diluted with HBSS to 1-2×10⁶ cells per ml, added with 1% goat serum blocking solution, incubated on ice for 20-30 minutes, and then washed with HBSS for 2 times by centrifugation. The collected cells were suspended in the FACS buffer (HBSS+1% BSA) to 2×10⁶ cells/ml, added as 100 microliters per well to a 96-well FACS reaction plate, added with 100 microliters per well of the antibody sample to be tested, incubated on ice for 1-2 hours. The plate was washed twice with the FACS buffer by centrifugation, added with 100 microliters of fluorescent (Alexa 488)-labeled secondary antibodies per well, and incubated on ice for 0.5-1.0 hours. The plate was washed 2-3 times with FACS buffer by centrifugation, added with 100 μl fixative solution (4% Paraformaldehyde) per well to suspend the cells. 5-10 minutes later, it was washed 1-2 times with FACS buffer by centrifugation. The cells were suspended with 100 microliters of FACS buffer, FACS (FACSCalibur, BD) was used for detection and the results were analyzed.
B1 gave a Mean fluorescence intensity of 69.3. Work on B2 yielded a Mean fluorescence intensity of 61.5. For B3, the Mean fluorescence intensity was 73.1.

Reference: patent US20210155689A1 (SHANGHAI PHARMAEXPLORER, published 2021)
